Drawing on PMC10397247, this text covers interaction score for one molecule.

Holding throughout (experiment): two-hybrid library CCmax;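 further: natural log of median RNA to DNA barcode read ratio; higher means stronger binding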
In one test the target is T1, 4H3664-AA.
T1 chain: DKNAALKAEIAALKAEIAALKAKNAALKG
Particulars: mean of both orientations.

A further test deals with T2, 4H55-AA.
T2 chain: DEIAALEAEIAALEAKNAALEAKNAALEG
Particulars: mean of both orientations.

For a further test, the target named is T3, 4H1405-AA.
T3 chain: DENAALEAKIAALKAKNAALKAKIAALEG
The conditions noted are these: mean of both orientations.

The next test has as its target T4, 4H2726-AA.
T4 chain: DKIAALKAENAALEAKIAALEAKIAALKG
Particulars: mean of both orientations.

A further test deals with T5, 4H341-AA.
T5 chain: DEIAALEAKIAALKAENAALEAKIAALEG

A further test concerns the target T6, 4H481-AA.
T6 chain: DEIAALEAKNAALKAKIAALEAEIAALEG
Particulars: mean of both orientations.

A further test addresses T7, 4H4033-AA.
T7 chain: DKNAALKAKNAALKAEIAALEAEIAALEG
The conditions noted are these: mean of both orientations.

In another test the target is T8, 4H327-AA.
T8 chain: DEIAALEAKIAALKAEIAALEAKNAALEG
The conditions noted are these: mean of both orientations.

Another test deals with T9, 4H2935-AA.
T9 chain: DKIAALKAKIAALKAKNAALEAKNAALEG
Particulars: mean of both orientations.

For the next test, the target named is T10, 4H2211-AA.
T10 chain: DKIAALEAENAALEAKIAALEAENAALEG
Particulars: mean of both orientations.

The next test has as its target T11, 4H1350-AA.
T11 chain: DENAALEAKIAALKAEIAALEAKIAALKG
Particulars: mean of both orientations.

A further test concerns the target T12, 4H369-AA.
T12 chain: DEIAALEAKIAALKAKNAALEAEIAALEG

For another test, the target named is T13, 4H662-AA.
T13 chain: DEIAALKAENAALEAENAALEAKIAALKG
The conditions noted are these: mean of both orientations.

A further test has as its target T14, 4H3605-AA.
T14 chain: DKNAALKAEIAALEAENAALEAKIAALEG
Particulars: mean of both orientations.

A further test concerns the target T15, 4H3922-AA.
T15 chain: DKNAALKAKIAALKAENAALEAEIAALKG
The conditions noted are these: mean of both orientations.

The target in a further test is T16, 4H2536-AA.
T16 chain: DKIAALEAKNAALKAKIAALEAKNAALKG
The conditions noted are these: mean of both orientations.

The next test has as its target T17, 4H2608-AA.
T17 chain: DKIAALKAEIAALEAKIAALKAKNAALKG
Particulars: mean of both orientations.

For the next test, the target named is T18, 4H2238-AA.
T18 chain: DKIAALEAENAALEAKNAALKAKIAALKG
The conditions noted are these: mean of both orientations.

For the next test, the target named is T19, 4H1198-AA.
T19 chain: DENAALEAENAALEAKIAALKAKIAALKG

For a further test, the target named is T20, 4H2513-AA.
T20 chain: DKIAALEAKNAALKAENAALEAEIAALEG
The conditions noted are these: mean of both orientations.

The target of another test is T21, 4H3625-AA.
T21 chain: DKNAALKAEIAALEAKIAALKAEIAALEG
The conditions noted are these: mean of both orientations.

The target in another test is T22, 4H2614-AA.
T22 chain: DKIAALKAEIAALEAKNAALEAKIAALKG
The conditions noted are these: mean of both orientations.

Regarding DENAALEAENAALEAKIAALKAKIAALKG [4H1198-AA], the interaction score is 1.22 with 4H3664-AA; -0.467 in the test with 4H55-AA; -0.758 with 4H1405-AA; -0.438 with 4H2726-AA; -2.13 in the test with 4H341-AA; 1.9 in the test with 4H481-AA. Also, the interaction score in the test with 4H4033-AA is 2.18; in the test with 4H327-AA, -0.574; with 4H2935-AA, -1.5; with 4H2211-AA, -1.3; with 4H1350-AA, 0.496; with 4H369-AA, -1.45. Besides, the interaction score in the test with 4H662-AA was -1.15; with 4H3605-AA, 0.0472; with 4H3922-AA, 0.661; in the test with 4H2536-AA, -0.886; with 4H2608-AA, 0.869; with 4H2238-AA it was -0.785. For the same molecule, the interaction score in the test with 4H1198-AA was -0.611; with 4H2513-AA, 1.14; with 4H3625-AA, -0.0176; with 4H2614-AA, -0.463.
